The record followed here is US20240091164A1.

In the test the target is FcεRIα subunit of the high-affinity IgE receptor (FcεRI) (human) (UniProt P12319). Put plainly: cell-based or functional assay.
FcεRIα subunit of the high-affinity IgE receptor (FcεRI) (human), sequence (P12319 26-257 limits assumed, form in doubt): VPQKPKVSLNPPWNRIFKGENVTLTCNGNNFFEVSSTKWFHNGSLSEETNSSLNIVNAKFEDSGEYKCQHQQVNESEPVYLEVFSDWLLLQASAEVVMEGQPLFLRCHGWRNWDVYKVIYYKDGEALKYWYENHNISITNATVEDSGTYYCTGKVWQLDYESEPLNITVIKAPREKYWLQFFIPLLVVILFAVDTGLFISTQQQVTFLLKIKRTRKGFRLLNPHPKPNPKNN

“anti-FcεRIα antibody, clone AER-37 (CRA1)”: the positive population mean for CD63 turned out to be 52.7% and the positive population mean for CD107a stood at 71.2%.
